The target of the assay is T1, hFGFR2α-Fc (IIIb) (Human, UniProt P21802-3 22-378, biotinylated with biotin-LC-NHS (2-fold molar excess), positions not stated).
T1 construct: Bought protein; also called RnD Systems 663-FR; not shown: Fc part of the bought fusion protein
Put plainly: ELISA; biotinylated Fc fusion protein on streptavidin plate, Fab at 1 µg/ml; signal against TRAIL-Fc wells (+++: ratio >5). In general terms: ELISA stands for enzyme-linked immunosorbent assay.

T1 sequence (P21802 other isoform, or with tags, fused parts or gaps limits assumed): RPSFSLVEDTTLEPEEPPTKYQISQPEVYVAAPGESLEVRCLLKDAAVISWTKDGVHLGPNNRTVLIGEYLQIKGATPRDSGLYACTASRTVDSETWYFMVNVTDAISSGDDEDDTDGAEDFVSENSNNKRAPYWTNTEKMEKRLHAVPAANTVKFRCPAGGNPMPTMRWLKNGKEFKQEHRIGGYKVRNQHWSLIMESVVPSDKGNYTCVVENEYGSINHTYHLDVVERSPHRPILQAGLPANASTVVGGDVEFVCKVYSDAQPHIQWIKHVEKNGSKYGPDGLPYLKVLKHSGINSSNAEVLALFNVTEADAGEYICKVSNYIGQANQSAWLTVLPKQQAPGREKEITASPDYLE

B1: parental Fab fragment M048-D01 (Fab, V domains shown)
VH: EVQLLESGGGLVQPGGSLRLSCAASGFTFSSYAMSWVRQAPGKGLEWVSAISGSGTSTYYADSVKGRFTISRDNSKNTLYLQMNSLRAEDTAVYYCARVRYNWNHGDWFDPWGQGTLVTVSS
VL: QSVLTQPPSASGTPGQRVTISCSGSSSNIGNNYVSWYQQLPGTAPKLLIYENYNRPAGVPDRFSGSKSGTSASLAISGLRSEDEADYYCSSWDDSLNYWVFGGGTKLTVL
notes: Fab from the n-CoDeR phage display library, expressed in E. coli and purified through its his-tag; constant domains and tag are not; also called M048-D01 Fab; sFab
Turning to B1, the binding result is listed as “binds”.

For the origin of these results see patent US20150023989A1 (Seagen, published 2015).
